Data: the nanobody polyreactivity screen of Harvey et al. (2022)

Test: yeast display, Sf9 membrane polyspecificity reagent, FACS + sequencing; frameworks hold sequencing errors
Outline: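 A nanobody's polyreactivity label depends on the gate it was sorted from. Yeast display cells were stained with 10% biotinylated, detergent-solubilized Sf9 membrane reagent for 1 hour at 4 °C, enriched on streptavidin microbeads and sorted by FACS. The low and high (top ~1%) gates were set on anti-HA fluorescence for expression and streptavidin fluorescence for reagent binding.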

| Sequence | polyreactivity (PSR sort gate) |
| --- | --- |
| QVQLVESGGGLVQAGGSLRLSCAASGFTFAWNAMGWYRQAPGKERELVATIDVSGGSTYYADSVKGRFTISRDNAKNTVYLQMNSLKPEDTAVYYCAAVELPEGGYDYWGQGTQVTVSS | low polyreactivity |
| QVQLVESGGGLVQAGGSLRLSCAASGNTFLWYAMGWYRQAPGKERELGAAISRGGGSTYYADSVKGRFTISRDNAKNTVYLQMNSLKPEDTAVYYCAARTYYSARSIHYREFEYWGQGTQVTVSS | high polyreactivity |
| QVQLVESGGGLVQAGGSLRLSCAASGSTIDRYAMGWYIQAPGKEREFVAAISFSSASTYYADSVKGRFTISRDNAKNTVYLQMNSLKPEDTAVYYCNADFFDSGGSIEYDSWGQGTQVTVSS | low polyreactivity |
| QVQLVESGGGLVQAGGSLRLSCAASGSTFAWYTMGWYRQAPGKERELVARISGSVGSTYYADSVKGRFTISRDNAKNTVYLQMNSLKPEDTAVYYCAAVYDEDQYDYWGQGTQVTVSS | low polyreactivity |
| QVQLVESGGGLVQAGGSLRLSCAASGRTFKKYAMGWYRQAPGKERELVAGITGSGGSTYYADSVKGRFTISRDNAKNTVYLQMNSLKPEDTAVYYCAAYAYGGWHSQDGGNYWGQGTQVTVSS | low polyreactivity |
| QVQLVESGGGLVQAGGSLRLSCAASGLTIWRYALGWYRQAPGKEREFVATISQNGGRTYYADSVKGRFTISRDNAKNTVYVQMNSLKPEDTAVYYCADDDWRWGYDYWGQGTQVTVSS | high polyreactivity |
| QVQLVESGGGLVQAGGSLRLSCAASGSTLWRYAMGWYRQAPGKEREFVAAISGSGGSTYYADSVKGRFTISRDNAKNTVYLLMNSLKPEDTAVYYCAASRKYRNPDRSMYYWGQGTQVTVSS | high polyreactivity |
| QVQLVESCGGLVQAGGSLRLSCAASGITFYGYAMGWYIQAPGKERELVARITISGRTNYADYVKGRFTISRDNAKNTVYLQMNSLKPEDTAVYYCATLVHWSYPYYYWGQGTQVTVSS | high polyreactivity |
| QVQLVESGGGLVQAGGSLRLSCAASGGIFYPYAMGWYRQAPGKERELVASIDVSDGSTYYADSVKGRFTISRDNAKNSVYLQMNSLKPEDTAVYYCAADRYSKAIDFEGDYWGQGTQVTVSS | low polyreactivity |
| QVQLVESGGGLVQAGGSLRLTCAASGFIFWANAMGWYRPAPGKERELVAAIRYSGGRTYYADSVKGRYTISRDNAKNTVFLQKNSLKPEDTAVYYCAKEYKKYGGFVVENDYWGQGTQVNVSS | low polyreactivity |
| QVQLVESGGGLVQAGGSLRLSCAASGSNFIPNAMGWYRQAPGKERELVAAIRSGRSTYYADSVKGRITISRDNANNTVYLQMNSLQPEATAVYYCAADTYPYYYYLARYYYWGQCTQVTVSS | low polyreactivity |
| QVQLVESGGGLVQAGGSLRLSCAASGSIFLGNAMGWYRQAPGKERELVAAISGGDSTNYADSVKGRFTISRDNAKNTVYLQMNSLKPEDTAVYYCAKDRPQEYDYWGQGTQVTVSS | low polyreactivity |
| QVQLVESGGGLVQAGGSLRLSCAASGSTFRDNAMGWYRQAPGKERELVAAITVIDGTTYYADSVKGRFTISRDYAKNTVYLQMNSLKPEDTAVYYCADDTIWYEYYYWGQGTQVTVSS | low polyreactivity |
| QVQLVESGGGLVQAGGSLRLSCAASGSTFAWYAMGWYRQAPGKERELVASIRWGGGSTYYADSVKGRFTISRDNAKNTVFLQMHSLKPEDTAVYYCAAYFGYTVGRYNYWGQGTQVTVSS | high polyreactivity |
| QFQRVESGGGLVQAGGSLRLSCAASGRILSYKVMGWYRQAPGKEREFVASIRRTGVRTYYADSVKGRFTISRDNAKNTVYLQINSLKPEDTGVYYCNAANFHFWDYYYWGQGTQVTVSS | low polyreactivity |
| QVQLVESGGGLVQAGGSLRLSCAASGSIFTKYAMGWYIQAPGKEREFVAAITLSGGSTYYADSVKGRFTISRDNAKNTVYLQMNSLKPEDTAVYYCNAAYTYVTAWYYYWGQGTQVTVSS | high polyreactivity |
| QVQLVESGGGLVQAGGSLRLSCAASGSIFYFYTMGWYRQAPGKERELVASITYSGGRTYYADSVKGRFTISRDNAKNTVYLQMNSLKPEDTAVYYCAVRGYRRYWGQGTQVTVSS | high polyreactivity |
